The values below come from US8236512B1, “Methods of developing terpene synthase variants” (Amyris, Inc., priority 2011, dated 2012).

As usually defined, the Km is the substrate concentration at which the rate is half of its maximum. For orientation: kcat means the number of substrate molecules converted per active site and unit of time at saturation.

Data set [1] relates to CC(C)=CCC/C(C)=C/CC/C(C)=C/CO[P@@](=O)(O)OP(=O)(O)O. As to the kind of experiment: Steady-state kinetics of purified farnesene synthase variant FS_B_5.3. The note with it: other: purified enzyme, 20.0 °C. It counts as biochemical, Artemisia annua.
The test system is the same in data set [2]. In words: cells, lysate or membranes named. The note with it: other: purified enzyme, steady-state; 20.0 °C.

Chain of Artemisia annua β-farnesene synthase, wild type, SEQ ID NO: 111 (FS_Aa_Ec coding sequence, SEQ ID NO: 62) (Artemisia annua) (chain, as listed by the source): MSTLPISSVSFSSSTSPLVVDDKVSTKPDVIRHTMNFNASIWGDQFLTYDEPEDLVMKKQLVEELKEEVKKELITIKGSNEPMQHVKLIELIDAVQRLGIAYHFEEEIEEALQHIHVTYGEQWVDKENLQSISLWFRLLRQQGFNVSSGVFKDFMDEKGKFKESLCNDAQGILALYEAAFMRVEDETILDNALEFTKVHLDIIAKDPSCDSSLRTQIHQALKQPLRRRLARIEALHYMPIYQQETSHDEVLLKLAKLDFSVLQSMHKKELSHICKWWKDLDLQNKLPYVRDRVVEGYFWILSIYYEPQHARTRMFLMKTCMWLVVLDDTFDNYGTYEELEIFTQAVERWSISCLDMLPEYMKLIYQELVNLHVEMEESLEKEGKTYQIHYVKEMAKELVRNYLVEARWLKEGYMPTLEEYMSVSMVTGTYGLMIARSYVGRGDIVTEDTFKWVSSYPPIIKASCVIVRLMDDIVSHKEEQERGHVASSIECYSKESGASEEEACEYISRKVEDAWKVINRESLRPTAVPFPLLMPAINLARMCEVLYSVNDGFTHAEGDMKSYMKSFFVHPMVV

On to “Artemisia annua β-farnesene synthase (SEQ ID NO: 111) variant FS_B_5.3 F11S/V24D/M35T/T196S/Y288F/T319S/I434T/T446N/I460V/V467I (FS_B_5.3_Ec; parent coding sequence FS_B, SEQ ID NO: 119) (Artemisia annua; F11S/I437T/I463V/M35T/T196S/T319S/T449N/V24D/V470I/Y288F)”, for which, in data set [1], the Km is 1.18 ± 0.44 µM and the kcat was found to be 0.093 ± 0.009 s⁻¹.

For “Artemisia annua β-farnesene synthase, wild type, SEQ ID NO: 111 (FS_Aa_Ec coding sequence, SEQ ID NO: 62) (Artemisia annua)”, in data set [2], the Km was 0.58 ± 0.19 µM and the kcat stood at 0.071 s⁻¹.
